To fix the notation:
B1: Hairpin Ribozyme (parent)
chain: GUCCUCUUUCACGUGCGCGUGAAAGAGAGAAGUGAACCAGAGAAACACACGUUGUGGUAUAUUACCUGGUA

In the data set the parent is B1. Briefly: self-cleavage, relative activity (ratio to wild type); higher = more cleavage; co-transcriptional.
GUCCUGUUUCAUGUGCGCGUGAAAGAGAGAAGUGAACCAGAGAAACACACGUUGUGGUAUAUUACCUGGUA [C6G C12U]: the self-cleavage is 0.332. For GUCCUGUUUCACGUGCGCGUGAAAGCGAGAAGUGAACCAGAGAAACACACGUUGUGGUAUAUUACCUGGUA [C6G A26C] the value was 0.22; for GUCCUUUUUCUCGUGCGCGUGAAAGAGAGAAGUGAACCAGAGAAACACACGUUGUGGUAUAUUACCUGGUA [C6U A11U], 0.578. For GUCCUUUUUCGCGUGCGCGUGAAAGAGAGAAGUGAACCAGAGAAACACACGUUGUGGUAUAUUACCUGGUA [C6U A11G] the value was 0.816.

As to GUCCUUUUUCCCGUGCGCGUGAAAGAGAGAAGUGAACCAGAGAAACACACGUUGUGGUAUAUUACCUGGUA [C6U A11C], the self-cleavage was 0.411. For GUCCUGUUUCACGUGCGCGUGAAAGAGAGAAGUGAACCAGUGAAACACACGUUGUGGUAUAUUACCUGGUA [C6G A41U] the value was 0.873. For GUCCUAUUUCACGUGCGCGUGAAAGAGAGAAGUGAACCAGAGAAACACACGUUGUGGCAUAUUACCUGGUA [C6A U58C] the value was 0.697. As to GUCCUGUUUCACGUGCGCGUGAAAGAGAGAAGUGAACCCGAGAAACACACGUUGUGGUAUAUUACCUGGUA [C6G A39C], the self-cleavage was determined as 0.299. For GUCCUGUUUCACGUGCGCGUGAAAGAGAGAAGUGAACCUGAGAAACACACGUUGUGGUAUAUUACCUGGUA [C6G A39U] the value was 0.164; for GUCCUAUUUCACGUGCGCGUGAAAGAGAGAAGUGAACCAGAGAAACACACGUUGUGGUAUAAUACCUGGUA [C6A U62A], 0.127; for GUCCUAUUUCACGUGCGCGUGAAAGAGAGAAGUGAACCAGAGAAACACACGUUGUGGUAUAGUACCUGGUA [C6A U62G], 0.0891. For GUCCUGUUUCACGUGCGCGUGAAAGAGAGAAGUGAGCCAGAGAAACACACGUUGUGGUAUAUUACCUGGUA [C6G A36G] the value was 0.768; for GUCCUGUUUCACGCGCGCGUGAAAGAGAGAAGUGAACCAGAGAAACACACGUUGUGGUAUAUUACCUGGUA [C6G U14C], 0.449. Regarding GUCCUGUUUCACGUGCGCGUGAAAAAGAGAAGUGAACCAGAGAAACACACGUUGUGGUAUAUUACCUGGUA [C6G G25A], the self-cleavage amounted to 0.523. For the variant GUCCUGUUUCACGUGCGCGUGCAAGAGAGAAGUGAACCAGAGAAACACACGUUGUGGUAUAUUACCUGGUA [C6G A22C], the self-cleavage worked out at 0.342. Turning to GUCCUGUUUCACGUGCGCGUGAAAGAGAGAAGUGAACCAGAGAAACUCACGUUGUGGUAUAUUACCUGGUA [C6G A47U], the self-cleavage stood at 0.13. For GUCCUGUUUCACGUGCGCGUGAAAGAGAGAAGUGAACCAGAGAAACGCACGUUGUGGUAUAUUACCUGGUA [C6G A47G] the value was 0.0875. For GUCCUGUUUCACGUGCGCGUGAAAGAGAGAAGUGAACCAGAGAAACACACGUUGUGGUAUAUUACCAGGUA [C6G U67A] the value was 0.15; for GUCCUGAUUCACGUGCGCGUGAAAGAGAGAAGUGAACCAGAGAAACACACGUUGUGGUAUAUUACCUGGUA [C6G U7A], 0.337; for GUCCUAUUUCACGUGCGCGUGAAAGAGAGAAGUGAACCAGAGAAACACACGUUGUGGUAUAUUACCGGGUA [C6A U67G], 0.173. For GUCCUGUUUCACGUGAGCGUGAAAGAGAGAAGUGAACCAGAGAAACACACGUUGUGGUAUAUUACCUGGUA [C6G C16A] the value was 0.54; for GUCCUGUUUCACGUGCGCGUGAAAGAGAGAAGUGAACCAGAGAAACACACGUUGUGGUAUAUUGCCUGGUA [C6G A64G], 0.365; for GUCCUGUUUCACGUGCGCGUGAAAGAGAGAAGUGAACCAGAGAAACACACGUUGUGGUAUAUUCCCUGGUA [C6G A64C], 0.123.

Turning to GUCCUGUUUCACGUGCGCGUGAAAGAGAGAAGUGAACCAGAGAAACACACGUUGUGGUAUAUUUCCUGGUA [C6G A64U], the self-cleavage turned out to be 0.105. For GUCCUGUUUCACGUGCGCGUGAAAGAGAGAAGUGAACAAGAGAAACACACGUUGUGGUAUAUUACCUGGUA [C6G C38A] the value was 0.103; for GUCCUGUUUCACGUGCGCGCGAAAGAGAGAAGUGAACCAGAGAAACACACGUUGUGGUAUAUUACCUGGUA [C6G U20C], 0.368; for GUCCUGUUUCACGUGCGCGGGAAAGAGAGAAGUGAACCAGAGAAACACACGUUGUGGUAUAUUACCUGGUA [C6G U20G], 0.248. For GUCCUAUUUCACGUGCGCGGGAAAGAGAGAAGUGAACCAGAGAAACACACGUUGUGGUAUAUUACCUGGUA [C6A U20G] the value was 0.518. For GUCCUAUUUCACGUGCGCGUGAAAGAGAGAAGUGAACCAGAGAAACACACGUUGUGGUAAAUUACCUGGUA [C6A U60A] the value was 0.541; for GUCCUGUUUCUCGUGCGCGUGAAAGAGAGAAGUGAACCAGAGAAACACACGUUGUGGUAUAUUACCUGGUA [C6G A11U], 0.314. Consider GUCCUGUUUCCCGUGCGCGUGAAAGAGAGAAGUGAACCAGAGAAACACACGUUGUGGUAUAUUACCUGGUA [C6G A11C], for which the self-cleavage amounted to 0.45. For GUCCUGUUUCACGUGCGCGUGAAAGAGAGAAGUGUACCAGAGAAACACACGUUGUGGUAUAUUACCUGGUA [C6G A35U] the value was 0.464.

As to GUCCUGUUUCACGUGCGCGUGAAAGAGAGAAGUGAACCAGAGAAACACACGUUGUGGUAUAUUACCUGAUA [C6G G69A], the self-cleavage came to 0.251. GUCCUGUUUCACGUGCGCGUGAAAGAGAGAAGUGAACCAGAGAAGCACACGUUGUGGUAUAUUACCUGGUA [C6G A45G]: the self-cleavage is 0.0674. For GUCCUGUUUCACGUGCGCGUGAAAGAGAGAAGUGAACCAGAGAAUCACACGUUGUGGUAUAUUACCUGGUA [C6G A45U] the value was 0.101; for GUCCUGUUUCACGUGCGCGUGAAAGAGAGAAGUGAACCAGAGAAACACACGUUGUGGUAUUUUACCUGGUA [C6G A61U], 0.183. For GUCCUGUUUCACGUGCGCGUGAAAGAGAGAUGUGAACCAGAGAAACACACGUUGUGGUAUAUUACCUGGUA [C6G A31U] the value was 0.0803; for GUCCUGUUUCACGUGCGCGUGAAAGAGAGACGUGAACCAGAGAAACACACGUUGUGGUAUAUUACCUGGUA [C6G A31C], 0.0766.

The record behind these values is the RNAGym collection of RNA variant scans (doi:10.7554/elife.80360).
